Test: protease stability score; higher = more stable; yeast display proteolysis, trypsin and chymotrypsin;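 further: log10 excess protease needed over predicted unfolded state with 0 meaning unfolded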

Sequence | protease stability score
DEDANNTAKEMLENIDEGNEKRWSELMDENATFNVGDKTYHGRENAEHLFRERKDEMRIEIDLHKVEVSGDHVVLDITVVKEHNGKPRRVDVQVEFRIHNGRMQEFVQDEHG | 0.245
DEEAHKVAESFIKAYSNGDEDKLKKNVDPNARIQIGDKYIHGMDTFVKEQRKRREQSRYHMSITHVDVQGNEVDVRFKAESEHDGQPHTNRMSVNFTFHNGNIKNVDIQYEP | -0.307
DDRQMDHFAHQFERNNPDEYRKMLDPNARAEYGDKDYSGREQVQTLADTLHKQFDHLEVKDYRFNNGRAEFRYEAKFNGKTLTMKMVAEVKNGHIKHVVFRVTDPRQRKDLQREFG | 0.156
EKHVMTRITQYERNVQNGDEDTLNEMVDKDAKINIGDKTWHGMHNAAKDWKRQKDEMRLDYRSIHVTVQGDTVRIDQVVAVERNGKPSHDRNVQIWHEDNGKVKQVEQHKRP | -0.216
DEEEAHKVKDVVENGDPDTLQNMADKDATARYGDKQVHGREQVRTAIKLWMDHVDHIDIRNIHVEGNKVNVDAVFNVNGRNLNVRFRMEVHNGKIKSFELQATDERIRETLERILS | 1.02
DERDLKEAIDNIRTNNFDELNKMADPNVKAVIGNKTIHGRETINKFLHRLSQQVDHVRIRHYHTRGDHLHVDFKVHFDGKDVKLRIVIRVNNGKITYIQIDVTSEEQLEELDEIVD | 1.59
DERQRSRAEEFMKNYQTGNEQNLDKLFDKNAKVHVGDKVVHGREQIREQNRREKEHLRFKIRHMDVEVRNGHVSVQVRMEREHNGHPQTVSVQFRNEQHNGQIKRFEREEQQ | 0.258
DDEELKRQAEEFLKNVKTGNHQELVKQMDPNVKVDVGDKRLQGRETAAHWFVKLVEQVDDFHVQTFDVHGETLEMHFVMEINGHRLQMVLRAEVHNGHIQEMSIDYRDPDRLRKVLS | 0.392
DEEKVAQKFAEEMNKVWEQGDPDRMAELADEDVRMKYGDKEIHGRDDVEDHLRTVFKEVDSASIDVKRVSNHNGRVDIKASITMRDNGSHSNTNIDIKAEVSGDKVKLKEQHHQ | -0.067
DEEEQNKIAETAAKAVASGDEKRLVDLADKHVKVHYGDKDLRGKEAADTLAHDLKRQVDNIKVDTVHAHNGRANADVEVRVNGKKVRYQVQVVVTNGTIDRVQLDPDMVRDHES | 0.101
DESLEDMARQLNTALQTNNPESVKEMFDKNARLEVGDKTWKGREHIDQWANRLRDEIRYEVRRFDLRVHGDKIEVNVHEEIQINGRPKSVSYSYTMRAHNGRIKHARYQPDPDAERRKKK | 0.031
DNDTQHRLAERFNHAVETGDPDKIMKLVPEDVRFTVGDKEYHGRESLSKVIKDFRDHADRVKVESVRVNNGRIDVQMRYNRNGQDRVMTFLLTVHNGKIENVNIQSG | 1.58
DETARDRLEELWRTMERNDPDKLTRQADKDVEVHVGDKELHGMKQVATTLAHEMREMDVEIEIREVNVQGNNVEVDMIFRAKVNGKPIHNKASFVVTFNNGKAESIELRVPPEFQKQKRK | -0.222
DDDNLKRQNEDVNRAVQHGDEKKVADMADPNVKVYYGDKEIHGREKVKEWWKRLADRADSFTVVDIELQGEKIRVRVKANIDGKHVDMEFEAHASNGRVKKMHINPDQFRQLRS | 0.445
DDEQINEFVKVMKTNDFKRLMDQADPNVSVSIGNFTVKGDKQAQKAARDLEEQADHIQIDSLTAHDGRLDVTLQMVFNGRDIRMSIKAEAHNGRLKSMKFQATSEEIEKILDEVLR | -0.142
DEEELETMRRILKENDWETIAHNADKDVKMTVGDKTIHGRENVRHWVKKWQKNVDHIDVESIDVQGDRIDMVARNVVNGKTMKLVFHINVHNGHVQEIELRARNEKDEELLRKAEG | 1.3
DDEAKDVVDTFMHAVRFGDPDKVDRNIDKDVRLRYGDTEVHGREDAKTYIEDLRDESRVKINEYSATAHNGKADLDADMSFTRNGQPRKRKMKVTAEVHNGHIKELDVQWRP | -0.313
DEELADLAHKLLEAYHTGNPDDVVRNMDPNARQTIGDRTVHGRENIKKMLRKVLQEWRIDIHLRSYHLNGNQVKLSADFNLTVNGKPDEFTATIIVIQHNGKIHEVQLRMPEQDFREITS | 1.05

Sequence | protease stability score
DEDANRELHKAMKHNDWDLLAKQMDKDVSKQVGDKTVHGRDRIQEDIKRLKTEIDHMEIEHVSARGDHLTADVHLVVNGQHVKFVIHIQFDNGRIKQIQWQVRDEDVEKQMKKLKG | -0.074
EEELLQRATEFLHAQETNDPKRLKEQADPNARFRVGDKTIHGMDEYVRQLEQTEREMKVSLEIKHVTLTGDKADVEAEVTKDRNGRPDRFRVRYEFEARNGKFVDVRIQEDR | 0.336
DSRSNAQRVLDAINQLVHGNPQEFNKNADPNVRATYGDKEVHGREEVKKHVDSLMKKVDHVQVKNYQITGDKARVQVVLDINGRTRHVQINAHAKNGRIKHVEIQQQ | 0.895
DEERVHQAVRIIKHNDPDKLRKLADPNAKFQVGDREIHGMEEYADIVAQIMEKADKITFTDIQVHNGRLTIEVVINVNGRNIQFQIFLEFHNGKLKHAHIQATSEEVQRQLNSLMG | 0.674
DEKKVLEVIQKFAEAIKDGNAEQAKKLGKEGIQVHIGDETINGPDQVEKYVKKVKDLGNEVHYKEKEVKGDEVTVHTEVKMGDQTVHFEVHYRAKDDKVEQFHVKFDKDEARRFKTS | -0.27
DEDLIELAKELMHALQEGDEKRLQDLIDPNASAQIGDHRVHGMDEVLSTLVEHQHNQRVRIDRMEADVHNGTARVRIDQQFEHNGNPDKKVLVYEMTANNGKLKHYKLDEDK | 0.268
DETDLEKFATIVQQNNPHEFKKLLPEDAKMTYGDKTVHGREEIQRILENLVKDVDRLRIKHYKISGDKIEIDLVVNVNGRNIRFSLRAKMHNGQIKFFEIEVRDDDVKHELEKMLS | 0.069
DEEEQHKTATKILSDFHTGNPDDMRENADEDVTAQVGDKTYTGREEFHKAVKTIVDRVDHLEIKSFDFHNGQLEANFVININGKNEKKKLVMRVENGRVKHMKIDDG | -0.221
EEEQLHNVVRALNQNDFDKFRKLIDPNARVVVGDKSWHGREDLSNYIKQLQDHVDHRTVKDVKWHNGKIHADVEQTVNGKKMRFVFQAVVKGDKVKELNMKFRDERVETLMRKVLR | 0.14
DEEVVKLLLELMKAWRTGDRDKAVKLMDPNVEIQVGDTYIHGREQNREEIKRIKDEIRWELSVKSYNQHNGQARIDADVTINVDGHPTHYRVDIRAEATNGEVKKITYNVPEEVLEEVKR | 0.026
DHERLRKLAKDFVKILKHGDPDRMRELVDKDVRVQIGDKEVHGREKVDEMVENIRHRADHIDFTSFHASNGRVTVDVVVNVDGKNTRVTWRIVMSNGRVKMIQVTDG | 1.82
DEEQEKHVSHYLELQKHGNEDELLRTVDPNATATVGDKEYHGMKHVAHHLVNTLKRINVKIDRLDLKVEGNTARIDQVRVQKTNGKPDRYRLKQTVQFHNGRFKRVTADVRR | -0.14
DEEALKHAKKLLNIITNGNPSEAQKLFDPNAKAHIGDQTLTGREDYVRDLQEKKDRMRYKIKSMDAQTDGEKVRFDIKYDFNINGQPRHASVVIRLKLHNGKIVEIRVQIDPEQLKQHRQ | 1.09
DEKLLELAKKMRRAEETGDEDQLREMADKDAKFDIGDKRIHGMDTFVRQIKHELDKMRREITSVEFRVEGEEVVIHVHWVYSHNGQPRTKEYTMKFEIRGDKIKDLHIDNRG | 0.007
DEKRMKELMDKVFRLVMEGNEEDVVKMGAPDVKYKYADHEYKGPEVMKEVAVMVRRLGAEVRVKRKEVHGDTAQADFDYRKGDTTVRTTARVKYEGDKVKRAEVEVSDEVKKIVHQG | 0.144
DEERKAEEMAKSIIKVWQSGDHHQQQRNADEDVRFEIGDKRINGDHQLEDWVKKIKEQYDHIEVRIKSVTRQGDKLVVIAQVVYNENGHRRQVTVRFVAVDHNGTIVLKRAIYR | 0.406
DDRDIERAKEMFKAIKTGDPDRLSELVDENARVKIGDKEWHGNTEWVEDLERKKKEMSVDLQIHKIEDRNGVAQIHMTRRMDHNGKPRSDKYVLFIRARNGRIVDVRAEERS | 0.097
DESEEKELEDILRRNDWERMSELAPPDVHATVGDTRLHGMEQVLSLFQTLNKRADQIHVKTLSVHNGQLHAVIVMQFNGRRVELHFDFEVKNGEFTSARVQARTEEEEKVMKEVLR | 1.05

Reference: the NTF2 design screens of Basanta et al. (2020)
